pKd: −log10 of the molar value.

Seven substances from PMC5834517 can be followed below.

Test [1] deals with Mut FcγRIIIa (engineered, non-glycosylated Fcγ receptor IIIa) (UniProt P08637). The test can be described thus: SPR; van't Hoff analysis: temperature dependence of KD; Mut FcγRIIIa on the surface, antibody fractions as analyte.
For test [2], the target named is WT FcγRIIIa (glycosylated, expressed by HEK293 cells) (UniProt P08637).
For test [3], the target named is Mut FcγRIIIa (non-glycosylated). Put plainly: SPR; Biacore T200; FcγRIIIa (WT or Mut) captured on a Ni2+-loaded NTA sensor chip at 350 RU; Rituximab fractions injected as analyte at 30 μL/min; PBS with 0.005% Tween-20; global fit, 1:1 Langmuir model; KD = koff/kon. (In general: Surface plasmon resonance follows binding to a sensor surface in real time, without labels.)

On to “Rituximab fraction Peak 2 of the FcγRIIIa column (antibody)”, for which, in test [1], the dH was -13.3 kcal/mol. The substance also had an EC50 of FcγRIIIa activation (NFAT-driven luciferase in Jurkat/FcγRIIIa/NFAT-Luc cells with Daudi cells; corresponds to ADCC) in test [2] of 0.19 µg/mL.
In test [2], “Rituximab (Roche), before separation (antibody)” had an EC50 of FcγRIIIa activation (NFAT-driven luciferase in Jurkat/FcγRIIIa/NFAT-Luc cells with Daudi cells; corresponds to ADCC) of 0.13 µg/mL.
With “Rituximab fraction Peak 3 of the FcγRIIIa column (antibody)”, the dH in test [1] was -13.1 kcal/mol. This substance registered an EC50 of FcγRIIIa activation (NFAT-driven luciferase in Jurkat/FcγRIIIa/NFAT-Luc cells with Daudi cells; corresponds to ADCC) in test [2] of 0.05 µg/mL.
For “Rituximab fraction Peak 1 of the FcγRIIIa column (antibody)” the same measures were -13.3 kcal/mol and 0.2 µg/mL.
As for “Rituximab, peak 2 of the FcγRIIIa-immobilized column (antibody)”, the pKd in test [3] is 6.00.
Same read-out and setting: with “Rituximab, peak 3 of the FcγRIIIa-immobilized column (antibody)” the figure was 6.15; with “Rituximab, peak 1 of the FcγRIIIa-immobilized column (antibody)”, 5.83.

As usually defined, the pKd is −log10 of the Kd, conventionally taken in molar units. A lower pKd goes with a high Kd.
